B1: MS-BW-1 (Fab, V domains shown)
VH: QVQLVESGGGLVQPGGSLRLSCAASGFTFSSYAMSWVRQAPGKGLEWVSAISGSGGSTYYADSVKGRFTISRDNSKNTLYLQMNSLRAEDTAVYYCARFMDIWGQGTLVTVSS
VL: DIALTQPASVSGSPGQSITISCTGTSSDVGGYNYVSWYQQHPGKAPKLMIYDVSNRPSGVSNRFSGSKSGNTASLTISGLQAEDEADYYCQSYDYQQFTVFGGGTKLTVLG
notes: Fab, FLAG + Strep-tag II; not tied by name
B2: MS-BW-26 (Fab, V domains shown)
VH: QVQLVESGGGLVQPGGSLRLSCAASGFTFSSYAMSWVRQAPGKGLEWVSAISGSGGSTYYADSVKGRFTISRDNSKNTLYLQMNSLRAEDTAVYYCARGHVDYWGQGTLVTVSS
VL: B1 VL with Y95F, Q96V, Q97R, T99M
notes: as for B1
B3: MS-BW-27 (Fab, V domains shown)
VH: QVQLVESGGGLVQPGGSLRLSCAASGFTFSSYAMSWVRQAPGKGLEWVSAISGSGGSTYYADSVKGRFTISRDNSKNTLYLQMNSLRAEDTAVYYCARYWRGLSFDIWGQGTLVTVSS
VL: B1 VL with Y95F, Q96Y, Q97K, T99N
notes: as for B1
B4: MS-BW-2 (Fab, V domains shown)
VH: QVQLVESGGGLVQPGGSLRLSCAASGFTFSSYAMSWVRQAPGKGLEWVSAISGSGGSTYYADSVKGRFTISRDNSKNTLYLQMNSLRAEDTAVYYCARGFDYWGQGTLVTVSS
VL: B1 VL with Y95F, Q96K, Q97T, F98Y, T99L
notes: as for B1
B5: MS-BW-17 (Fab, V domains shown)
VH: QVQLVQSGAEVKKPGESLKISCKGSGYSFTSYWIGWVRQMPGKGLEWMGIIYPGDSDTRYSPSFQGQVTISADKSISTAYLQWSSLKASDTAMYYCARLTNYFDSIYYDHWGQGTLVTVSS
VL: DIALTQPASVSGSPGQSITISCTGTSSDVGGYNYVSWYQQHPGKAPKLMIYDVSNRPSGVSNRFSGSKSGNTASLTISGLQAEDEADYYCQSYDPSHPSKVFGGGTKLTVLG
notes: as for B1
B6: MS-BW-55 (Fab, V domains shown)
VH: QVQLVQSGAEVKKPGSSVKVSCKASGGTFSSYAISWVRQAPGQGLEWMGWINPNSGGTNYAQKFQGRVTMTRDTSISTAYMELSSLRSEDTAVYYCARITYIGYDFWGQGTLVTVSS
VL: B5 VL with Y93R, P95L, S96Y, H97Y, P98V, S99Y, K100Y
notes: as for B1
B7: MS-BW-60 (Fab, V domains shown)
VH: QVQLVQSGAEVKKPGESLKISCKGSGYSFTSYWIGWVRQMPGKGLEWMGIIYPGDSDTRYSPSFQGQVTISADKSISTAYLQWSSLKASDTAMYYCARFVSYNGSVPYFDYWGQGTLVTVSS
VL: B1 VL with Y93M, Y95F, Q96R, Q97L, F98M, T99H
notes: as for B1
B8: MS-BW-61 (Fab, V domains shown)
VH: QVQLVQSGAEVKKPGESLKISCKGSGYSFTSYWIGWVRQMPGKGLEWMGIIYPGDSDTRYSPSFQGQVTISADKSISTAYLQWSSLKASDTAMYYCARIIGDYVIFFDVWGQGTLVTVSS
VL: B1 VL with Y93F, Y95M, Q96I, Q97H, F98P, T99Y
notes: as for B1
B9: MS-BW-57 (Fab, V domains shown)
VH: B8 VH with I99L, I100Y, G101P, D102E, Y103D, V104L, F106Y, V109Y
VL: B1 VL with Y93W, Y95V, Q97T, F98D, T99K
notes: as for B1
B10: MS-BW-59 (Fab, V domains shown)
VH: B5 VH with T100R, N101V, Y102H, F103D, D104Y, S105A, I106M, Y108F, H110L
VL: B1 VL with Y95I, Q96M, Q97P, F98E, T99R
notes: as for B1
B11: MS-BW-54 (Fab, V domains shown)
VH: QVQLVQSGAEVKKPGESLKISCKGSGYSFTSYWIGWVRQMPGKGLEWMGIIYPGDSDTRYSPSFQGQVTISADKSISTAYLQWSSLKASDTAMYYCARYYGFEYDLLFDNWGQGTLVTVSS
VL: B1 VL with Y95I, Q96S, Q97G, F98Y, T99P
notes: as for B1
B12: MS-BW-56 (Fab, V domains shown)
VH: QVQLVQSGAEVKKPGSSVKVSCKASGGTFSSYAISWVRQAPGQGLEWMGGIIPIFGTANYAQKFQGRVTITADESTSTAYMELSSLRSEDTAVYYCARQEWYMDYWGQGTLVTVSS
VL: DIELTQPPSVSVAPGQTARISCSGDALGDKYASWYQQKPGQAPVLVIYDDSDRPSGIPERFSGSNSGNTATLTISGTQAEDEADYYCQSYDRSMWVFGGGTKLTVLG
notes: as for B1
B13: MS-BW-44-2-16 (Fab, V domains shown)
VH: QVQLVESGGGLVQPGGSLRLSCAASGFTFSSYAMSWVRQAPGKGLEWVSGISGNGVLIFYADSVKGRFTISRDNSKNTLYLQMNSLRAEDTAVYYCARWFDVWGQGTLVTVSS
VL: B1 VL with Y95F, Q96V, Q97R, T99M
notes: Fab
B14: MS-BW-44-2-15 (Fab, V domains shown)
VH: B13 VH with V102H
VL: B1 VL with Y95F, Q96V, Q97R, T99M
notes: Fab
B15: MS-BW-40 (Fab, V domains shown)
VH: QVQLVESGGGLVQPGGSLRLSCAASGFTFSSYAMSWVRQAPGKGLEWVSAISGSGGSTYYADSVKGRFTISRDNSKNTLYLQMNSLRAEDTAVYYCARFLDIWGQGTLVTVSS
VL: B1 VL
notes: Fab: heavy chain of MS-BW-3 with light chain of MS-BW-1; not tied by name
B16: MS-BW-52 (Fab, V domains shown)
VH: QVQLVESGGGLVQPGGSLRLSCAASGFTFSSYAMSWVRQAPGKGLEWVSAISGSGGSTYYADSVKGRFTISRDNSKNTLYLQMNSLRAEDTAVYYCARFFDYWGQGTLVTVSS
VL: B1 VL with Y95F, Q96V, Q97R, T99M
notes: Fab: heavy chain of MS-BW-28 with light chain of MS-BW-26; not tied by name
B17: MS-BW-47 (Fab, V domains shown)
VH: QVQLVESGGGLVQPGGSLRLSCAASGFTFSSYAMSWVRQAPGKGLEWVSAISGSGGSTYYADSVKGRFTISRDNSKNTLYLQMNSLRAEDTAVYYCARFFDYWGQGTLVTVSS
VL: B1 VL
notes: Fab: heavy chain of MS-BW-28 with light chain of MS-BW-1; not tied by name
B18: MS-BW-46 (Fab, V domains shown)
VH: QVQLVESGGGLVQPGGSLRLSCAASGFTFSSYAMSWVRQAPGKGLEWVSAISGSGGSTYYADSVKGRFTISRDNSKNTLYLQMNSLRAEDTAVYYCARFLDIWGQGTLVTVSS
VL: B1 VL with Y95F, Q96R, Q97R, T99S
notes: Fab: heavy chain of MS-BW-3 with light chain of MS-BW-28; not tied by name
B19: MS-BW-41 (Fab, V domains shown)
VH: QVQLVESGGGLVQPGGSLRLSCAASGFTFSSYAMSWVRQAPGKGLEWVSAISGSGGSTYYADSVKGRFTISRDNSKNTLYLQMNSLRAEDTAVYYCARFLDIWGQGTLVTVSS
VL: B1 VL with Y95F, Q96K, Q97T, F98Y, T99L
notes: Fab: heavy chain of MS-BW-3 with light chain of MS-BW-2; not tied by name
B20: MS-BW-45 (Fab, V domains shown)
VH: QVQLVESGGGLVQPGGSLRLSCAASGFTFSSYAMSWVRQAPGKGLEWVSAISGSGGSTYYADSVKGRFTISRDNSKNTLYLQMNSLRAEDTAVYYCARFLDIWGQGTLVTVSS
VL: B1 VL with Y95F, Q96Y, Q97K, T99N
notes: Fab: heavy chain of MS-BW-3 with light chain of MS-BW-27; not tied by name
B21: MS-BW-43 (Fab, V domains shown)
VH: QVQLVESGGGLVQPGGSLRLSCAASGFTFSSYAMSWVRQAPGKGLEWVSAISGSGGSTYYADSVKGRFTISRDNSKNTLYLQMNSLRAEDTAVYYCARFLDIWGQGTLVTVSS
VL: B1 VL with Y95F, Q96I, Q97N, F98V, T99I
notes: Fab: heavy chain of MS-BW-3 with light chain of MS-BW-25; not tied by name
B22: MS-BW-51 (Fab, V domains shown)
VH: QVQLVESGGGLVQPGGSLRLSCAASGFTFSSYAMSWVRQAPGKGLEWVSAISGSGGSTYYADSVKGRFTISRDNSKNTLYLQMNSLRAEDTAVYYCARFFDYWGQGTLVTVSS
VL: B1 VL with Y95F, Q96I, Q97N, F98V, T99I
notes: Fab: heavy chain of MS-BW-28 with light chain of MS-BW-25; not tied by name
B23: MS-BW-49 (Fab, V domains shown)
VH: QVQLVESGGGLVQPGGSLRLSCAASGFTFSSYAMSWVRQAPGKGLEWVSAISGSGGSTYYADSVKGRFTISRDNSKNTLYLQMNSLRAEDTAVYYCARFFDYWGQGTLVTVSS
VL: B1 VL with Y95F, Q96K, Q97T, F98Y, T99L
notes: Fab: heavy chain of MS-BW-28 with light chain of MS-BW-2; not tied by name
B24: MS-BW-17-2 (Fab, V domains shown)
VH: B5 VH
VL: B5 VL with S92A, Y93F, D94A, P95V, S96M, H97P, P98N, S99V, K100E
notes: Fab from LCDR3 optimization of MS-BW-17
B25: MS-BW-17-3 (Fab, V domains shown)
VH: B5 VH
VL: B5 VL with Y93F, D94T, P95V, H97P, P98G, S99A, K100D
notes: as for B24
B26: MS-BW-54-1 (Fab, V domains shown)
VH: B11 VH
VL: B1 VL with V29L, D52A, V53G, S54N, S92A, Y95S, Q96S, Q97G, F98Y, T99P
notes: Fab from LCDR1, -2, -3 optimization of MS-BW-54

Where a chain is given by its changes, count along the chain named. Bounds are passed on as bounds.

T2 sequence (P30120 24-217 limits assumed): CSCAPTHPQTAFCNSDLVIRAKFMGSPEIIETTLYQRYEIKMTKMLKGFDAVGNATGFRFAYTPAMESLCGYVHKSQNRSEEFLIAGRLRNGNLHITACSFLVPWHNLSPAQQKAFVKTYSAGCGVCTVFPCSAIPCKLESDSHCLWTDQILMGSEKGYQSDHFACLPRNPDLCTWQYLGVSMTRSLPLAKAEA

For the first experiment, the target named is T1, human TIMP-1 (human, UniProt P01033 24-207).
T1 construct: Purified protein, coupled to the BIAcore chip or in solution in the protease assay
In words: SPR (BIAcore), TIMP-1 coupled to chip, monovalent Fab. How it is done: (§1) For affinity determination, monomeric fractions of affinity and SEC purified Fab fragments or purified IgG1 molecules were used. All experiments were conducted in HBS buffer at a flow rate of 20 μl/min at 25° C. on a BIAcore™ instrument. Antigens in 100 mM sodium acetate pH 5.0 were coupled to a CM 5 sensor chip using standard EDC-NHS coupling chemistry. […] All sensograms were fitted globally using BIA evaluation software. For monovalent Fab fragments a monovalent fit (Langmuir binding) and for IgGs a bivalent fit was applied.
On the technique in general: Surface plasmon resonance follows binding to a sensor surface in real time, without labels.
Usually Kd stands for the concentration at which binding is half-saturated. A higher Kd goes with weaker binding. The molecule B1 came in with a Kd of 65 nM.

In the case of B2, the Kd was ~100 nM.

B3: the Kd was ~74 nM.

In turn, B4 yielded a Kd of 180 nM.

A further experiment deals with T1, human TIMP-1. In words: cell-based or functional assay.
Take B1: the “IC50 in human protease assay” value was > 100 nM.

Turning to B4, the “IC50 in human protease assay” value was > 100 nM.

A further experiment addresses T2, rat TIMP-1 (rat, UniProt P30120 24-217). In words: SPR (BIAcore), TIMP-1 coupled to chip, monovalent Fab. The method, then:
as §1
B5 gave a Kd of 13 nM.

As for B6, the Kd was ~23 nM.

Take B7: the Kd was ~30 nM.

Regarding B8, the Kd is ~51 nM.

As to B9, the Kd was ~39 nM.

For the molecule B10, the Kd was ~15 nM.

On to B11, for which binding was put at a Kd of 9 nM. This counts as single-digit nanomolar.

Consider B12, for which the Kd was ~170 nM.

In a further experiment the target is T1, human TIMP-1. In words: cell-based or functional assay. The source holds these as a separate data set.
In the case of B13, the “IC50 in human protease assay (modified, decreased TIMP-1 and MMP-1)” value came to 0.3 nM.

In the case of B14, the “IC50 in human protease assay (modified, decreased TIMP-1 and MMP-1)” value was 0.2 nM.

For a further experiment, the target named is T2, rat TIMP-1. The experiment can be described thus: cell-based or functional assay.
Turning to B5, the “IC50 in rat protease assay” value was 11 nM.

On to B6, for which the “IC50 in rat protease assay” value is ~100 nM.

As to B7, the “IC50 in rat protease assay” value is > 100 nM.

Regarding B8, the “IC50 in rat protease assay” value was > 100 nM.

Take B9: the “IC50 in rat protease assay” value was ~60 nM.

Regarding B10, the “IC50 in rat protease assay” value amounted to 30 nM.

As for B11, the “IC50 in rat protease assay” value came to 7 nM.

Consider B12, for which the “IC50 in rat protease assay” value is > 100 nM.

In a further experiment the target is T1, human TIMP-1. The experiment can be described thus: cell-based or functional assay. This is another data set of the same source.
Regarding B15, the “IC50 in human protease assay” value is > 100 nM.

Take B16: the “IC50 in human protease assay” value turned out to be 9 nM.

Regarding B17, the “IC50 in human protease assay” value is > 100 nM.

Take B18: the “IC50 in human protease assay” value turned out to be 4 nM.

As to B19, the “IC50 in human protease assay” value came to 29 nM.

In the case of B20, the “IC50 in human protease assay” value was found to be 9 nM.

Take B21: the “IC50 in human protease assay” value was > 100 nM.

Take B22: the “IC50 in human protease assay” value was determined as 7 nM.

For B23, the “IC50 in human protease assay” value is > 100 nM.

For the next experiment, the target named is T2, rat TIMP-1. The experiment can be described thus: SPR (BIAcore), TIMP-1 coupled to chip, monovalent Fab. The source holds these as a separate data set. The method, then:
as §1
On to B5, for which the Kd worked out at 13 nM.

Turning to B24, the Kd worked out at 1.3 nM. This Kd lies about 10-fold lower than the previous one.

B25 gave a Kd of 1.9 nM.

In the case of B11, the Kd was found to be 9 nM.

B26: the Kd stood at 2 nM.

A further experiment concerns the target T1, human TIMP-1. The experiment is described as above. The source holds these as a separate data set. The method, then:
as §1
For the molecule B3, the Kd was ~74 nM.

For the molecule B15, the Kd was ~49 nM.

For the molecule B16, the Kd is ~11 nM.

B17: the Kd was ~152 nM.

In the case of B18, the dissociation constant (Kd) worked out at 6 nM. This lies in the single-digit nanomolar range.

B19: the Kd is ~6 nM.

The molecule B20 showed a Kd of 8 nM.

In the case of B21, the equilibrium dissociation constant (Kd) was ~65 nM.

As for B22, the Kd is ~7 nM.

Regarding B23, the Kd is ~21 nM.

The next experiment deals with T1, human TIMP-1. Described as above. This is another data set of the same source. How it is done:
as §1
For the molecule B13, binding was put at a Kd of 0.5 nM.

B14 yielded a Kd of 0.3 nM. This Kd lies about 1.7-fold lower than the previous one.

The target in another experiment is T2, rat TIMP-1. In words: cell-based or functional assay. This is another data set of the same source.
On to B5, for which the “IC50 in rat protease assay” value came to 11 nM.

In the case of B24, the “IC50 in rat protease assay” value is 1.1 nM.

B25: the “IC50 in rat protease assay” value turned out to be 3 nM.

Turning to B11, the “IC50 in rat protease assay” value was found to be 7 nM.

As to B26, the “IC50 in rat protease assay” value amounted to 3 nM.

Values taken from patent US20140086935A1 (Bayer, published 2014).
